Measurements as given in IntAct's records for PubMed 16530190.

B1: Actin-binding protein WASF1 (Rattus norvegicus (Rat)), Q5BJU7 (parent)
chain: MPLVKRNIDPRHLCHTALPRGIKNELECVTNISLANIIRQLSSLSKYAEDIFGELFNEAHSFSFRVNSLQERVDRLSVSVTQLDPKEEELSLQDITMRKAFRSSTIQDQQLFDRKTLPIPLQETYDVCEQPPPLNVLTPYRDDGKEGLKFYTNPSYFFDLWKEKMLQDTEDKRKEKRKQKQKNLDRPHEPEKVPRAPHDRRREWQKLAQGPELAEDDADLLHKHIEVANGPASHFETRPQTYVDHMDGSYSLSALPFSQMSELLSRAEERVLVRPHEPPPPPPMHAAGDARPTPTCVSSAAGLIENRPQSPAAGRTPVFVSPTPPPPPPPLPSALSTSSLRASMTSTPPPPVPPPPPPPAPALQAPAVPPPPAPLQIAPGVLHPAPPPIAPPLVQPSPPVARAAPVCETVPVHPLPQGEVQGLPPPPPPPPLPPPGIRPSSPVTVAALAHPPSGLHPTPSPAPGPHAPLMPPSPPSQVLPASEPKRHPSTLPVISDARSVLLEAIRKGIQLRKVEEQREQEAKHERIENDVATILSRRIAVEYSDSEDDSEFDEVDWLE

Variants of: B1
Settings: with gnai3_rat Gnai3, P08753
gnai3_rat Gnai3, P08753, sequence (P08753 whole entry): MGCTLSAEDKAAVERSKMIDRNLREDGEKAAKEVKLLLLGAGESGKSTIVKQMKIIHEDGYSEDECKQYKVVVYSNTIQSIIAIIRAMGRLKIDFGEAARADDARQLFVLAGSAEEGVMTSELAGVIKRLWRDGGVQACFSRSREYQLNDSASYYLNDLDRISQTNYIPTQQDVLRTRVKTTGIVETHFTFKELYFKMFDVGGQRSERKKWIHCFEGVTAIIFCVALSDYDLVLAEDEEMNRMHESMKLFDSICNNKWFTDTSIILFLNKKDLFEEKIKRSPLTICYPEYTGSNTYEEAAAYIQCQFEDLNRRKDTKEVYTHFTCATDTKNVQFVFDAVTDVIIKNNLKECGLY

| Variant | effect of a mutation on the interaction |
| --- | --- |
| Q517A | decreasing interaction |

Variants of: B1
Settings: with actb_rat Actb

| Variant | effect of a mutation on the interaction |
| --- | --- |
| Q517A | decreasing interaction |

Variants of: B1
Settings: with arpc2_human ARPC2, O15144

| Variant | effect of a mutation on the interaction |
| --- | --- |
| Q517A | decreasing interaction |
